How the values were obtained:
[1] = molecular target: HA of A/Vietnam/1203/2004 (H5N1) (influenza A virus (H5N1)); assay: BLI, Fab on immobilized biotinylated HA
[2] = molecular target: HA of A/Solomon Islands/03/2006 (H1N1) (influenza A virus (H1N1)); assay: BLI, Fab on immobilized biotinylated HA
[3] = molecular target: HA of A/Victoria/361/2011 (H3N2) (influenza A virus (H3N2)); assay: BLI, Fab on immobilized biotinylated HA
[4] = molecular target: HA of A/Indonesia/5/2005 (H5N1) (influenza A virus (H5N1)); assay: BLI, Fab on immobilized biotinylated HA
[5] = molecular target: HA of A/shearwater/Western Australia/2576/1979 (H15N9) (influenza A virus (H15N9)); assay: ELISA, recombinant HA
[6] = molecular target: HA of A/Vietnam/1203/2004 (H5N1) (influenza A virus (H5N1)); assay: ELISA, recombinant HA
[7] = molecular target: HA of A/black-headed gull/Sweden/4/1999 (H16) (influenza A virus (H16)); assay: ELISA, recombinant HA
[8] = molecular target: HA of A/Solomon Islands/03/2006 (H1N1) (influenza A virus (H1N1)); assay: ELISA, recombinant HA
[9] = molecular target: HA of A/Texas/36/1991 (H1N1) (influenza A virus (H1N1)); assay: ELISA, recombinant HA
[10] = molecular target: HA of A/Fort Monthouth/1947 (H1N1) (influenza A virus (H1N1)); assay: ELISA, recombinant HA
[11] = molecular target: HA of A/Taiwan/2/2013 (H6) (Influenza A virus A/Taiwan/2/2013 (H6)); assay: ELISA, recombinant HA
[12] = molecular target: HA of A/Indonesia/5/2005 (H5N1) (influenza A virus (H5N1)); assay: ELISA, recombinant HA

Row | Substance | Kd [1] [nM] | Kd [2] [nM] | Kd [3] [nM] | Kd [4] [nM] | EC50 [5] [µg/mL] | EC50 [6] [µg/mL] | EC50 [7] [µg/mL] | EC50 [8] [µg/mL] | EC50 [9] [µg/mL] | EC50 [10] [µg/mL] | EC50 [11] [µg/mL] | EC50 [12] [µg/mL]
1 | FluA-20 Fab | 122 | 2 | 15 | 88 |  |  |  |  |  |  |  | 
2 | CR6261 (antibody) |  |  |  |  | 0.061 | 0.031 | 0.245 | 0.013 | 0.025 | 0.043 | 0.048 | 0.026

Reference: US20210252150A1
